According to publication PMC7083938, “NELL2-Robo3 complex structure reveals mechanisms of receptor activation for axon guidance” (Nature Communications, 2020):

Legend:
[1] = molecular target: T1, hRobo3 FN1-3, biotinylated (wild type) (human, UniProt Q96MS0 549-870, biotin on the Avi-tag (BirA)); assay: SPR; as a6 but with additional 10 mM EDTA in all buffers; conditions: both partners purified
T1 construct: human Robo3, FN domains 1-3, P549-L870; also called WT hRobo3 FN; Robo3FN1-3 WT; source: High Five cells (baculovirus), purified (Ni-NTA, SEC), biotinylated with BirA
T1 sequence (looked up): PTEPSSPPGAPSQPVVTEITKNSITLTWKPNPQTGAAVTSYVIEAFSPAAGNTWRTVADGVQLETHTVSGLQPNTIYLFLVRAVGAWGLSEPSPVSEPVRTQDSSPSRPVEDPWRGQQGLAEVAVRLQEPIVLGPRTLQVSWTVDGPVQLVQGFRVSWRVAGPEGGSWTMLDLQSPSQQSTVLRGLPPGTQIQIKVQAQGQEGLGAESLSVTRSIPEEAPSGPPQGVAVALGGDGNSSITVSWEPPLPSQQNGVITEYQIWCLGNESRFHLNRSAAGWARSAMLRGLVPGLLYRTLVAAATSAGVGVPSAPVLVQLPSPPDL

[2] = molecular target: T1, hRobo3 FN1-3, biotinylated (wild type); assay: SPR; biotinylated hRobo3 FN1-3 on an SA chip, Biacore 3000; hNELL1 EGF1-3 or hNELL2 EGF1-3 as analyte; equilibrium isotherms; conditions: both partners purified
[3] = molecular target: T2, hRobo3 FN1-3 displayed on S2 cells (human, UniProt Q96MS0 549-870); assay: flow cytometry on cells; biotinylated ligand at various concentrations, 30 min at 4 °C in PBS + 0.1% BSA, on Drosophila S2 cells displaying the partner (C-terminal FLAG, rat Neurexin-1 transmembrane helix); Cy5-streptavidin; gated on anti-FLAG positive cells; MFI fit to a single-site model; apparent KD; conditions: one partner purified
T2 construct: human Robo3, FN domains 1-3, P549-L870; also called Robo3FN1-3 WT (Actin 5C, C-terminal FLAG); source: Drosophila S2 cells, transiently transfected, on the cell surface; not shown: FLAG, C-terminal, kept; transmembrane helix of rat Neurexin-1, C-terminal, kept
T2 sequence (looked up): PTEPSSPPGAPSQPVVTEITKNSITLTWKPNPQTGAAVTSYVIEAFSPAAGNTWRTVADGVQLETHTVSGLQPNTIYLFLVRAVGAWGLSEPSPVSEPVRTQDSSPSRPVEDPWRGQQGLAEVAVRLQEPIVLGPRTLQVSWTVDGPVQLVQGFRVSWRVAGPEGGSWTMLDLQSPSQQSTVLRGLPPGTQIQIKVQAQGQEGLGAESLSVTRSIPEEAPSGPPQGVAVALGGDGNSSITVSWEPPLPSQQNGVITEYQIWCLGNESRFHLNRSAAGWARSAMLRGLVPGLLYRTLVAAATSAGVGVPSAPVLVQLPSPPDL

B1: hNELL1 EGF1-3 (domain or fragment, human, UniProt Q92832 390-517, looked up)
chain: RGHNFCAEGPKCGENSECKNWNTKATCECKSGYISVQGDSAYCEDIDECAAKMHYCHANTVCVNLPGLYRCDCVPGYIRVDDFSCTEHDECGSGQHNCDENAICTNTVQGHSCTCKPGYVGNGTICRA
notes: human NELL1, EGF domains 1-3, R390-A517; also called NELL1EGF1-3 (Polyhedrin, human); source: High Five cells (baculovirus), purified (Ni-NTA, SEC)
- Kd [1]: 2710 nM
- Kd [2]: 460 nM

B2: hNELL2 EGF1-6, biotinylated (wild type) (domain or fragment)
chain: not shown
modifications: biotin on the Avi-tag (BirA)
notes: human NELL2, EGF domains 1-6, G397-T637; also called WT hNELL2 EGF; NELL2EGF1-6 WT; source: High Five cells (baculovirus), purified (Ni-NTA, SEC), biotinylated with BirA
- Kd [3]: 770 nM

B3: hNELL2 EGF1-6 L498A/F500A, biotinylated (domain or fragment)
chain: not shown
modifications: biotin on the Avi-tag (BirA)
notes: human NELL2, EGF domains 1-6, G397-T637; source: High Five cells (baculovirus), purified, biotinylated with BirA (general methods)
- Kd [3]: ≥ 100000 nM

B4: hNELL2 EGF1-6 R452A, biotinylated (domain or fragment)
chain: not shown
modifications: biotin on the Avi-tag (BirA)
notes: as for B3
- Kd [3]: 1100 nM

B5: hNELL2 EGF1-6 R448A/Y450A, biotinylated (domain or fragment)
chain: not shown
modifications: biotin on the Avi-tag (BirA)
notes: as for B3
- Kd [3]: 9000 nM

B6: hNELL2 EGF1-6 D477A/Y478A, biotinylated (domain or fragment)
chain: not shown
modifications: biotin on the Avi-tag (BirA)
notes: as for B3
- Kd [3]: ≥ 100000 nM

B7: hNELL2 EGF1-6 D476A, biotinylated (domain or fragment)
chain: not shown
modifications: biotin on the Avi-tag (BirA)
notes: as for B3
- Kd [3]: ~50000 nM

B8: hNELL2 EGF1-6 V509A, biotinylated (domain or fragment)
chain: not shown
modifications: biotin on the Avi-tag (BirA)
notes: as for B3
- Kd [3]: 1500 nM
